In patent publication US20230147962A1, “FIBROBLAST ACTIVATION PROTEIN LIGANDS FOR TARGETED DELIVERY APPLICATIONS” (PHILOCHEM AG, priority 2020, published 2023):

Columns and labels:
[1] = tested on: SK-RC-52.hFAP and SK-RC-52.wt xenografts; assay: Ex vivo targeting experiment, SK-RC-52.hFAP and SK-RC-52.wt xenografts; format: in vivo, BALB/C nu/nu mice; settings: 40 nmol intravenous, ex vivo organ images 1 h
Description: (§1) SK-RC-52.hFAP, HT-1080.hFAP, SK-RC-52.wt cells were grown to 80% confluence and detached with Trypsin-EDTA 0.05%. Cells were re-suspended in HBSS medium to a final concentration of 5×10^7 cells/mL. […] SK-MEL-187 cells were grown to 80% confluence and detached with Trypsin-EDTA 0.05%. Cells were re-suspended in a 1:1 mixture of HBSS:Matrigel to a final concentration of 10×10^7 cells/mL.
(§2) Mice bearing subcutaneous SK-RC-52.hFAP or HT-1080.hFAP tumors on the right flank and SK-RC-52.wt tumor on the left flank were injected intravenously with conjugate 30 (40 nmol in sterile PBS, pH 7.4). […] Cryostat sections ([…]) were cut and nuclei were stained with Fluorescence Mounting Medium (Dako Omnis, Agilent). Images were obtained using an Axioskop2 mot plus microscope (Zeiss) and analyzed by ImageJ 1.53 software.

[2] = tested on: HT-1080.hFAP and SK-RC-52.wt xenografts; assay: Ex vivo targeting experiment, HT-1080.hFAP and SK-RC-52.wt xenografts; format: in vivo, BALB/C nu/nu mice; settings: 40 nmol intravenous, ex vivo organ images 1 h
Description: as §1, §2

SK-MEL-187 tumour = settings: 250 nmol/kg daily for 7 consecutive days
Description: SK-MEL-187 xenografted tumours were implanted into female athymic BALB/C nu/nu mice (6-8 weeks of age) as described above, and allowed to grow to an average volume of 0.1 mL. Mice were randomly assigned into therapy groups of 3 animals. […] Tumours were measured with an electronic caliper and animals were weighted daily. Tumour volume (mm^3) was calculated with the formula (long side, mm)×(short side, mm)×(short side, mm)×0.5 (FIG. 8). Prism 6 software (GraphPad Software) was used for data analysis (regular two-way ANOVA followed by Bonferroni test).

[3] = tested on: SK-RC-52.hFAP and SK-RC-52.wt tumours; settings: 250 nmol/kg, 6 hours after intravenous administration
Description: (§3) SK-RC-52.hFAP (right flank) and SK-RC-52.wt (left flank) xenografted tumors were implanted into female athymic BALB/C nu/nu mice (6-8 weeks of age) as described above, and allowed to grow to an average volume of 0.1 mL.
(§4) Frozen organs were cutted with a scalpel (50 mg), and suspended in 600 μL of 95:5 Acetonitrile/water (0.1% TFA). A solution of D8-MMAE in 3:97 Acetonitrile/water (0.1% FA; internal standard, 50 μL, 50 nM) was added. The samples were mechanically lysed with a Tissue Lyser II (Qiagen, 30 Hz shaking, 15 minutes). Plasma samples (50 μL) were added with a solution of D8-MMAE in 3:97 Acetonitrile/water (0.1% FA; internal standard, 50 μL, 50 nM) and proteins were precipitated by addition of 600 μL of 95:5 Acetonitrile/water (0.1% TFA). Proteins from both organs and plasma samples were pelleted by centrifugation and supernatants were dried with a vacuum centrifuge. Solid remanences were resuspended in 1 mL of 3:97 Acetonitrile/water (0.1% TFA) and solutions were cleaned up through a first purification step on HBL Oasis columns and a second purification on C18 Macro Spin Columns. Purified dried eluates were resuspended in 150 μL of 3:97 Acetonitrile/water (0.1% FA) and analyzed by MS. All samples were analysed by liquid chromatography-tandem mass spectrometry (LC-MS/MS) using a Q Exactive Mass Spectrometer fitted with an EASY-nLC 1000 (both Thermo Fisher Scientific). Analytes were resolved with an Acclaim PepMap RSLC C18, 50 m×150 mm, 2 m analytical column (Thermo Fisher Scientific) at a flow rate of 0.3 It/min by running a linear gradient from 3% to 50% ACN over 60 min. All buffers contained 0.1% formic acid. MS spectra were recorded in SIM scan mode with a resolution of 70000 and a maximum injection time of 100 ms. MS/MS were recorded at a resolution of 35000 and a maximum injection time of 250 ms.
(§5) Raw files were then analysed with the Skyline software. MS1 areas of the two ions were used for quantification.

in vivo = settings: female, BALB/C nu/nu, mouse, iv, 250 nmol/kg
Description: as §3, §4, §5

SK-RC-52.hFAP tumour = assay: Therapy experiment in SK-RC-52.hFAP tumour bearing mice; settings: 500 nmol/kg intravenously from day 8 for 6 consecutive days
Description: SK-RC-52.hFAP xenografted tumors were implanted into female athymic BALB/C nu/nu mice (6-8 weeks of age) as described above, and allowed to grow to an average volume of 0.1 mL.
Mice were randomly assigned into 8 therapy groups of 4 animals each (5 single-agent groups, 2 combination groups and vehicle group). […] L19-IL2 was diluted at 330 μg/mL in the appropriate formulation buffer and intravenously administered at the dose of 2.5 mg/kg.
Mice in single-agent groups received daily injections of ESV6-ValCit-MMAE, QCOOH-ValCit-MMAE or L 19-IL2.
Mice in combination groups received daily injections of ESV6-ValCit-MMAE on day 8,10 and 12 after tumor implantation, and of L 19-IL2 on day 9,11 and 13 after tumor implantation.
Tumors were measured with an electronic caliper and animals were weighted daily. Tumor volume (mm^3) was calculated with the formula (long side, mm)×(short side, mm)×(short side, mm)×0.5.
Prism 6 software (GraphPad Software) was used for data analysis (regular two-way ANOVA followed by Bonferroni test).

Row | Structure (SMILES) | targeting performance, SK-RC-52.hFAP and SK-RC-52.wt xenografts [1] | targeting performance, HT-1080.hFAP and SK-RC-52.wt xenografts [2] | anti-tumour effect (mean tumour volume) (SK-MEL-187 tumour) | tolerability (changes in body weight), acute toxicity (SK-MEL-187 tumour) | accumulation in FAP-negative SK-RC-52 wild type tumours [3] | uptake at the tumour site (FAP-positive SK-RC-52) [3] [% ID/g] | uptake in healthy organs [3] | tissue uptake at 6 h (in vivo; SK-RC-52.hFAP tumour (FAP-positive)) [%ID/g] | tissue uptake at 6 h (in vivo; healthy organs) [%ID/g] | anti-tumour effect (mean tumour volume) (SK-RC-52.hFAP tumour)
1 | N#C[C@@H]1CC(F)(F)CN1C(=O)CNC(=O)c1ccnc2c(NC(=O)CCC(=O)N[C@@H](CC(=O)O)C(=O)N[C@@H](CCCCN)C(=O)N[C@@H](CC(=O)O)C(=O)N[C@@H](CSC3CC(=O)N(CCCCCNC(=O)c4ccc5c(c4)C(=O)OC54c5ccc(N)c(S(=O)(=O)O)c5Oc5c4ccc(N)c5S(=O)(=O)O)C3=O)C(=O)O)cccc12 (stereo in doubt) [conjugate 30, ESV6-Alexa Fluor 488] | localises rapidly, homogeneously and selectively in vivo at the tumour which presents FAP expression 1 hour after the intravenous injection, with an excellent tumour-to-organs selectivity | rapidly, homogeneously and selectively localizes in vivo at the tumour which presents FAP expression 1 hour after the intravenous injection, with an excellent tumour-to-organs selectivity |  |  |  |  |  |  |  | 
2 | CC[C@H](C)[C@@H]([C@@H](CC(=O)N1CCC[C@H]1[C@H](OC)[C@@H](C)C(=O)N[C@H](C)[C@@H](O)c1ccccc1)OC)N(C)C(=O)[C@@H](NC(=O)[C@H](C(C)C)N(C)C(=O)OCc1ccc(NC(=O)[C@H](CCCNC(N)=O)NC(=O)[C@@H](NC(=O)CCCCCN2C(=O)CC(SC[C@H](NC(=O)[C@H](CC(=O)O)NC(=O)[C@H](CCCCN)NC(=O)[C@H](CC(=O)O)NC(=O)CCC(=O)Nc3cccc4c(C(=O)NCC(=O)N5CC(F)(F)C[C@H]5C#N)ccnc34)C(=O)O)C2=O)C(C)C)cc1)C(C)C (stereo partly shown) [ESV6-ValCit-MMAE] |  |  | more potent anti-tumour effect as compared with HABERKORN-ValCit-MMAE | lower acute toxicity as compared to HABERKORN-ValCit-MMAE | does not accumulate in FAP-negative SK-RC-52 wild type tumours | 18 | lower than 1 % ID/g | 18 | < 1 | more potent anti-tumour effect as compared with QCOOH-ValCit-MMAE
